In this assay the target is Soc-SpyCatcher fusion protein (displayed on T4 phage: T4-SpyCatcher phage) (bacteriophage T4). The assay can be described thus: co-sedimentation.

In the case of “SUMO-RBD-SpyTag fusion protein, refolded (from UniProt P0DTC2 319-545) (domain or fragment)”, the copies per capsid (rRBD molecules per capsid) is 300.

(Values after article PMC8442874.)
